Assay results taken from patent US20190142971A1, “FORMULATION AND DELIVERY OF MODIFIED NUCLEOSIDE, NUCLEOTIDE, AND NUCLEIC ACID COMPOSITIONS” (ModernaTX, Inc., priority 2013, published 2019).

What was measured:
Type in all cases: in vivo
C57/BL6 mice = experiment: Example 34: EPO mRNA in buffer IM or SC in mice, serum EPO (Table 60); details: 13 hours post injection
Method: Mice were intramuscularly or subcutaneously injected with 50 μl of the modified human EPO mRNA (h-EPO), modified luciferase mRNA (Luc) or the formulation buffer (F.Buffer) as described in the dosing chart Table 60. 13 hours post injection blood was collected and serum was analyzed to determine the amount human EPO for each mouse or rat.

mice = experiment: Example 42A: G-CSF/EPO mRNA in buffer IM in mice, serum protein at 13 hours (Table 67); details: EPO group: human EPO in mouse serum, IM 100 ug
Method: The mice were bled at 13 hours after the injection to determine the concentration of the human polypeptide in serum in pg/mL (G-CSF groups measured human G-CSF in mouse serum and EPO groups measured human EPO in mouse serum).

rats = experiment: Example 17: LNP IV, IM, SC in rats, serum EPO/G-CSF ELISA (Table 34); details: for EPO / G-CSF Serum Concentration: LNP 0.05 mg/kg
Method: Formulations, listed in Table 33, were characterized by particle size, zeta potential, and encapsulation.
LNP formulations, shown in Table 33 (above), were administered to rats (n=5) intravenously (IV), intramuscularly (IM) or subcutaneously (SC) at a single modified mRNA dose of 0.05 mg/kg. A control group of rats (n=4) was untreated. […] The rats administered EPO modified mRNA intravenously were also bled at 7 days.

[1] = test system: non-human primates (cynomolgus monkey); experiment: Example 22: LNP IV in non-human primates, serum G-CSF/EPO ELISA (Tables 38, 39)
Method: LNP formulations, shown in Table 33 (above), were administered to non-human primates (NHP) (cynomolgus monkey) (n=2) as intravenous injection (IV). The NHP were administered a single modified mRNA IV dose of 0.5 mg/kg, 0.05 mg/kg or 0.005 mg/kg of G-CSF or EPO in a dose volume of 0.5 mL/kg. The NHPs were bled before dosing with the modified mRNA LNP formulations to determine protein expression in the serum and a baseline complete blood count. After administration with the G-CSF modified mRNA formulation the NHP were bled at 8, 24, 48 and 72 hours to determined protein expression. After administration with the EPO modified mRNA formulation the NHP were bled at 8, 24, 48, 72 hours and 7 days to determined protein expression.
Samples collected from the NHPs after they were administered with G-CSF or EPO modified mRNA formulations were analyzed by ELISA to determine protein expression. Neutrophil and reticulocyte count was also determined pre-dose, 24 hours, 3 days, 7 days, 14 days and 18 days after administration of the modified G-CSF or EPO formulation.

B1: EPO: modified mRNA encoding human erythropoietin, SEQ ID NO: 7, Cap1, fully modified with 5-methylcytosine and pseudouridine; LNP NPA-060-1 in Examples 17-22 (nucleic acid)
chain: GGGAAAUAAGAGAGAAAAGAAGAGUAAGAAGAAAUAUAAGAGCCACCAUGGGAGUGCACGAGUGUCCCGCGUGGUUGUGGUUGCUGCUGUCGCUCUUGAGCCUCCCACUGGGACUGCCUGUGCUGGGGGCACCACCCAGAUUGAUCUGCGACUCACGGGUACUUGAGAGGUACCUUCUUGAAGCCAAAGAAGCCGAAAACAUCACAACCGGAUGCGCCGAGCACUGCUCCCUCAAUGAGAACAUUACUGUACCGGAUACAAAGGUCAAUUUCUAUGCAUGGAAGAGAAUGGAAGUAGGACAGCAGGCCGUCGAAGUGUGGCAGGGGCUCGCGCUUUUGUCGGAGGCGGUGUUGCGGGGUCAGGCCCUCCUCGUCAACUCAUCACAGCCGUGGGAGCCCCUCCAACUUCAUGUCGAUAAAGCGGUGUCGGGGCUCCGCAGCUUGACGACGUUGCUUCGGGCUCUGGGCGCACAAAAGGAGGCUAUUUCGCCGCCUGACGCGGCCUCCGCGGCACCCCUCCGAACGAUCACCGCGGACACGUUUAGGAAGCUUUUUAGAGUGUACAGCAAUUUCCUCCGCGGAAAGCUGAAAUUGUAUACUGGUGAAGCGUGUAGGACAGGGGAUCGCUGAUAAGCUGCCUUCUGCGGGGCUUGCCUUCUGGCCAUGCCCUUCUUCUCUCCCUUGCACCUGUACCUCUUGGUCUUUGAAUAAAGCCUGAGUAGGAAG
modifications: Cap1, 5-methylcytosine, pseudouridine
C57/BL6 mice; mice IM, dose 1 μg
  Average Level in serum (human EPO): 2.6 pg/mL
C57/BL6 mice; mice IM, dose 10 μg
  Average Level in serum (human EPO): 25.9 pg/mL
C57/BL6 mice; mice IM, dose 25 μg
  Average Level in serum (human EPO): 18.7 pg/mL
C57/BL6 mice; mice IM, dose 50 μg
  Average Level in serum (human EPO): 63.5 pg/mL
C57/BL6 mice; mice IM, dose 100 μg
  Average Level in serum (human EPO): 96.2 pg/mL
C57/BL6 mice; mice SC, dose 100 μg
  Average Level in serum (human EPO): 72.0 pg/mL
mice
  Average Protein Product, serum: 191.5 pg/mL
rats; IV
  protein expression detectable out to: 5 days
rats; IM, 2 hours
  EPO / G-CSF Serum Concentration: 1395.4 pg/mL
rats; IM, 8 hours
  EPO / G-CSF Serum Concentration: 8974.6 pg/mL
rats; IM, 24 hours
  EPO / G-CSF Serum Concentration: 4678.3 pg/mL
rats; IV, 2 hours
  EPO / G-CSF Serum Concentration: 36,981.0 pg/ml
rats; IV, 8 hours
  EPO / G-CSF Serum Concentration: 62,053.3 pg/ml
rats; IV, 24 hours
  EPO / G-CSF Serum Concentration: 42,077.0 pg/ml
rats; IV, 48 hours
  EPO / G-CSF Serum Concentration: 5,561.5 pg/ml
rats; IV, 5 days
  EPO / G-CSF Serum Concentration: 0.0 pg/mL
rats; IV, 7 days
  EPO / G-CSF Serum Concentration: 0.0 pg/mL
rats; SC, 2 hours
  EPO / G-CSF Serum Concentration: 386.2 pg/mL
rats; SC, 8 hours
  EPO / G-CSF Serum Concentration: 985.6 pg/mL
rats; SC, 24 hours
  EPO / G-CSF Serum Concentration: 544.2 pg/mL
rats; subcutaneous and intramuscular
  protein expression detectable to: at least 24 hours
[1]; 0.005 mg/kg IV, 8 hours
  Female NHP Serum G-CSF / EPO Concentration: 523 pg/mL
  Male NHP Serum G-CSF / EPO Concentration: 250 pg/mL
[1]; 0.005 mg/kg IV, 24 hours
  Female NHP Serum G-CSF / EPO Concentration: 302 pg/mL
  Male NHP Serum G-CSF / EPO Concentration: 113 pg/mL
[1]; 0.005 mg/kg IV, 48 hours
  Female NHP Serum G-CSF / EPO Concentration: 11 pg/mL
  Male NHP Serum G-CSF / EPO Concentration: 29 pg/mL
[1]; 0.005 mg/kg IV, 72 hours
  Female NHP Serum G-CSF / EPO Concentration: <7.8 pg/mL
  Male NHP Serum G-CSF / EPO Concentration: <7.8 pg/mL
[1]; 0.005 mg/kg IV, 7 days
  Female NHP Serum G-CSF / EPO Concentration: <7.8 pg/mL
  Male NHP Serum G-CSF / EPO Concentration: <7.8 pg/mL
[1]; 0.005 mg/kg IV, Pre-bleed
  Female NHP Serum G-CSF / EPO Concentration: <7.8 pg/mL
  Male NHP Serum G-CSF / EPO Concentration: <7.8 pg/mL
[1]; 0.05 mg/kg IV, 8 hours
  Female NHP Serum G-CSF / EPO Concentration: 19,858 pg/ml
  Male NHP Serum G-CSF / EPO Concentration: 7,072 pg/ml
[1]; 0.05 mg/kg IV, 24 hours
  Female NHP Serum G-CSF / EPO Concentration: 18,187 pg/ml
  Male NHP Serum G-CSF / EPO Concentration: 4,913 pg/ml
[1]; 0.05 mg/kg IV, 48 hours
  Female NHP Serum G-CSF / EPO Concentration: 5,291 pg/ml
  Male NHP Serum G-CSF / EPO Concentration: 498 pg/mL
[1]; 0.05 mg/kg IV, 72 hours
  Female NHP Serum G-CSF / EPO Concentration: 744 pg/mL
  Male NHP Serum G-CSF / EPO Concentration: 60 pg/mL
[1]; 0.05 mg/kg IV, 7 days
  Female NHP Serum G-CSF / EPO Concentration: <7.8 pg/mL
  Male NHP Serum G-CSF / EPO Concentration: <7.8 pg/mL
[1]; 0.05 mg/kg IV, Pre-bleed
  Female NHP Serum G-CSF / EPO Concentration: <7.8 pg/mL
  Male NHP Serum G-CSF / EPO Concentration: <7.8 pg/mL
